Consider two molecules from publication PMC4117790, “HRAS is silenced by two neighboring G-quadruplexes and activated by MAZ, a zinc-finger transcription factor with DNA unfolding property”.

For data set [1], the target named is T1, MAZ-GST (UniProt P56270 1-477).
T1 sequence: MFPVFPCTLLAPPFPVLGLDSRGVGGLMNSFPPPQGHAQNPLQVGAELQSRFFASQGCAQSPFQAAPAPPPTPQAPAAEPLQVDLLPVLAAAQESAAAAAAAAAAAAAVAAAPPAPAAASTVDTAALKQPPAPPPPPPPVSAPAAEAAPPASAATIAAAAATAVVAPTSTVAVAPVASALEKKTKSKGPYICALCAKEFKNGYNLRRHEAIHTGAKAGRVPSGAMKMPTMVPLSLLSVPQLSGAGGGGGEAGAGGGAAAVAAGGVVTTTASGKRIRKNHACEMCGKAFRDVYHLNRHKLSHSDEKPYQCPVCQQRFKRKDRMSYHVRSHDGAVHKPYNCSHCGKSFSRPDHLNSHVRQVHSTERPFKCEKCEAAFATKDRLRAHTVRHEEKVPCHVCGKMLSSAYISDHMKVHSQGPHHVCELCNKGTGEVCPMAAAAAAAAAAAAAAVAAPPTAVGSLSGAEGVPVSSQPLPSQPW
The data set is described as follows: double-filter binding; 100 mM KCl, 50 uM Zn acetate; Hill n = 1.6 ± 0.3; EMSA/filter: 20 mM Tris-HCl pH 8, 8% glycerol, 100 uM MgCl2, 50 uM Zn acetate, 1 mM DTT, 2.5 ng/ul poly dIdC, 1 mM Na3VO4, 5 mM NaF, KCl as stated (100 mM for filter binding); EMSA gel 20 C, filter 4 C 30 min; FRET: 50 mM Tris-HCl pH 7.4, 50 uM Zn acetate, 50 mM KCl, 37 C. As to conditions: protein: recombinant; tags: GST; label: 32P; antiparallel intramolecular G4. (In general: In EMSA bound probe runs differently from free probe, usually more slowly.)

Data set [2] deals with T1, MAZ-GST. The data set is described as follows: double-filter binding; 100 mM KCl, 50 uM Zn acetate; Hill n = 1.4 ± 0.2; EMSA/filter: 20 mM Tris-HCl pH 8, 8% glycerol, 100 uM MgCl2, 50 uM Zn acetate, 1 mM DTT, 2.5 ng/ul poly dIdC, 1 mM Na3VO4, 5 mM NaF, KCl as stated (100 mM for filter binding); EMSA gel 20 C, filter 4 C 30 min; FRET: 50 mM Tris-HCl pH 7.4, 50 uM Zn acetate, 50 mM KCl, 37 C. The following applies: protein: recombinant; tags: GST; label: 32P; parallel intramolecular G4.

B1: hras-1 quadruplex (structured_DNA)
DNA: TCGGGTTGCGGGCGCAGGGCACGGGCG
A word on the Kd: it is the free concentration of one partner at which half of the binding sites on the other are occupied at equilibrium, for simple one-to-one binding. Turning to B1, in the data set with MAZ-GST [1], the dissociation constant Kd amounted to 504 ± 84 nM.

B2: hras-2 quadruplex (structured_DNA)
DNA: CGGGGCGGGGCGGGGGCGGGGGCG
On to B2, for which, in the data set with MAZ-GST [2], the Kd turned out to be 207 ± 12 nM.
